Measurements from the DeepSol protein solubility set.

test: soluble on expression in E. coli; label from the status in PepcDB or PDB records

| Sequence | soluble on expression in E. coli |
| --- | --- |
| MAEFLDDQETRLCDNCKKEIPVFNFTIHEIHCQRNIGMCPTCKEPFPKSDMETHMAAEHCQVTCKCNKKLEKRLLKKHEETECPLRLAVCQHCDLELSILKLKEHEDYCGARTELCGNCGRNVLVKDLKTHPEVCGREGEEKRNEVAIPPNAYDESWGQDGIWIASQLLRQIEALDPPMRLPRRPLRAFESDVFHNRTTNQRNITAQVSIQNNLFEEQERQERNRGQQPPKEGGEESANLDFMLALSLQNEGQASSVAEQDFWRAVCEADQSHGGPRSLSDIKGAADEIMLPCEFCEELYPEELLIDHQTSCNPSRALPSLNTGSSSPRGVEEPDVIFQNFLQQAASNQLDSLMGLSNSHPVEESIIIPCEFCGVQLEEEVLFHHQDQCDQRPATATNHVTEGIPRLDSQPQETSPELPRRRVRHQGDLSSGYLDDTKQETANGPTSCLPPSRPINNMTATYNQLSRSTSGPRPGCQPSSPCVPKLSNSDSQDIQGRNRDSQNGAIAPGHVSVIRPPQNLYPENIVPSFSPGPSGRYGASGRSEGGRNSRVTPAAANYRSRTAKAKPSKQQGAGDAEEEEEE | soluble |
| MTEMAKGSVTHQQLIALLSQEGANFRVVTHEAVGKCEAVSEIRGTALGQGAKALVCKVKGNGVNQHVLAILAADQQADLSQLASHIGGLRASLASPAEVDELTGCVFGAIPPFSFHPKLKLVADPLLFERFDEIAFNAGMLDKSVILKTADYLRIAQPELVNFRRTA | not soluble |
| MNGPEVLRFAANLYRVPVEGGYFLVDAGLPWEARRLLSLLQEPPRLLFLTHHHLDHAGGARALWERFRVPVLAHPQEWAYLTKRKPRPPLPLPLLGKGARQLGADDPGGGPRPRGGRGWRSSASGWSTSRGTPLGQVGLFREGVLLAGNALRGRGLPPRFINEDHALARRTVRKILELGVKRVYLGHGGPLSGEEVAAIARRLGV | soluble |
| MSLAHRTVAMVLFNDVLLLDVTGPMDAFAIANRFLPAARQYRLLTLAEGQAVVRGSCGLKVVADRRLEDLPEAVDLLLVPGGPGAYDIALPGIERWLPKAVRQAKRFGAICTGVFLLGRAGLLNGYRCTTHWNYVERLAQAFPEAKVETEQIYVMDRCLITSGGITAGIDLALAVVAEDHGKALALEVAKVLLVARHRQGGQTPYGPLLAAVPRDDSPIARVQAYIVDHIEQAFTVQKMAELVAMSGRNFARTFLREVGITPLQYLQNARIDRTRKLLECGDLPMKVVAAQCGFGSDRHMRKVFFERIGMTPAQYRAQFGGEGHHHHHH | soluble |
| GPGSMDDKQAFFVRCIDGKTFKMVIRGDLGKLTVGKIRRYLKSYGVQDGMQLLFNGLSLADEQVGSDFGLCNGATLHLGPPSFSEPAVPQRTHGQGFSDEAAGSRTGDPTDTPHSSLSGDSRERNSKADSTHRDPCGGLSHADPARGTATYSGGRYNVDKGIPVTATSATKTNIDRIPSADLTSHSGFPVALEVENQQLREQVELLRREVADLRQKNKAPRATVLRQDLTSIEVLQSAKSNLQELAEELGVPLQFDTNFTCVVGDDESHTVLVTFDCVTERLYIYSTLLTQIPHDGEVRAKLYELLLEGSLLSREVCGGGIGISPQNGLVLLSTTIPLRHCNSSALKDIMPVFVETVARWRSLINELLN | soluble |
| MLEVSVMTIRRDLHQEDEPLPLTLLGGYIVMVNKPAPSMPVIHDVPKNHRDDLPIAILAAGMVNENDLIFFDNGQEIPLVISMIPDAITFTGICYSHRVFVALNEKPNVTAILCGGTYRARSDAFYDASNSSPLDSLNPRKIFISASGVHNHFGVSWFNPEDLATKRKVMNRGLRKILLARHALFDEVASASLAPISAFDVLISDRPLPADYVTHCQNGSVKIITPDSEDELEHHHHHH | not soluble |
| MKQKEMIVMSILVKSVSFDDYRNTQLNEKCANFLQSAEMAKLQESQDHIEKVEALVFERDGLRVAQAIVVYKKSFRVFKKALLLHGPLLDYHSSCWFDREILEALILYLRKKNIATLSIHPYLTNLIRNEKLENIEVDKARDVLEVFETLGFEHSLDSEQSLVVNQMFVKSIESFASSDEILAAFSPSLKRDLKKFTALNVKTEELDEHQLDQFYDILSRTAERKGFSVHPLVYFQNLKKYFGKSAKFMLAYLDCPAYLAYLDENIQSFEAKIQDLKEGPQKKRTKGQIADAEDQLRSYYKRLEQFKSYQIKTDKLPLSAYLFMDYGPEIVSFYGGNDEAYLNFGGAVLLHWEMLKYAKSKSKKHFNFYGTIETEAASSGKGNFNFKRQFGGQLETLVGSFDKTLNPFYDILKKTLGKD | not soluble |
| MRETIPIKYIDTIEINKLSIQDLEDLSSCKYKLLSAYLIGKIPANKILDADELEIYHNERTKKILAKAIKARKLVIVLKATRLCNLRCTYCHSWAEGPNQTILFSTLIHIVRQILAIPNVNRFEFVWHGGEVTLLKPAFFKKLIWLQEQFKRPEQYITNTMQSNIVNISDEWLIFIKGIGMNVGISLDGIPAVNDKRRVDFRGRGTSDRIAKGIKKLQKYDILYGALIVVDREVYQTDMREMLDYFILIELNGIEFLNIVPDNRLTAGEDIGNNFISYAEFIKFLSALFVIWIKGYREKIHIAIFEDFISVLEHPEKKLSACYWSGNCSQEIITLEPNGDVSPCDKYRGDAGSIYGSLLKTDLAGLLTQSSHNQQAIDEEVAATRKMQHCEWFSICHGGCPHDRVINRRHTKGYNDECCGTGKLLATIKAYLADIR | not soluble |
| MGHHHHHHSHMTKHPPNRRGISFEVGAQLEARDRLKNWYPAHIEDIDYEEGKVLIHFKRWNHRYDEWFCWDSPYLRPLEKIQLRKEGLHEEDGSSEFQINEQVLACWSDCRFYPAKVTAVNKDGTYTVKFYDGVVQTVKHIHVKAFSKDQNIVGNARPKETDHKSLSSSPDKREKFKEQRKATVNVKKDKEDKPLKTEKRPKQPDKEGKLICSEKGKVSEKSLPKNEKEDKENISENDREYSGDAQKTRQTPFHSSYCCGFKLSNFATNNIGTEKKENIKRM | not soluble |
| MGSDKIHHHHHHMIRLSNENTIFFMDKENVPIASCQSGDTVIFETKDCFSDQITNEEQALTSIDFNRVNPATGPLYVEGARRGDMLEIEILDIKVGKQGVMTAAPGLGALGESLNSPTTKLFPIEGDDVVYSTGLRLPLQPMIGVIGTAPPGEPINNGTPGPHGGNLDTKDIKPGTTVYLPVEVDGALLALGDLHAAMGDGEILICGVEIAGTVTLKVNVKKERMFPLPALKTDTHFMTIASAETLDAAAVQATKNMATFLANRTALSIEEAGMLLSGAGDLYVSQIVNPLKTARFSLALHYFEKLGVDLCN | not soluble |
| MRLERVLEEARAKGYPIEDNGLGNLWVVLPRERFKEEMAHYKAMGFNFLADIVGLDYLTYPDPRPERFAVVYELVSLPGWKDGDGSRFFVRVYVPEEDPRLPTVTDLWGSANFLEREVYDLFGIVFEGHPDLRKILTPEDLEGHPLRKDYPLGETPTLFREGRYIIPAEFRAALTGKDPGLTFYKGGSRKGYRSLWADLKKAREVKGLEHHHHHH | not soluble |
| MAAFNDTLRAEIEEKKEDSVSERTTRNGKILNAKDEPEFGMNITPTTLFFKYPIGGIGYSFFTVTNTTSEKQAFKVKSSDNTWFRSKPSVGFIKSGEKVHVRVTFNSPDAGKERPERGSDNKNHVAIFHVAAGDAKTYKEAFAKKAADGVHHFFARHLAEPGAQVDKEADEKAPNGA | soluble |
| MANMTFSLPDPMKDWIESRIQKGEYASASDYVRDLVRRDWARRGQDFSIDELRQIVAESRASGVGSRSMDDLFAEAERVATAHGVMRE | not soluble |
| MSLRHVRERGVLVATLQRLAEQDPLTGIANRQGFQALLNARLAENEGRGVALGHLDLDNFRHVNDALGHQSGDRLILQVVARLKHQLEAGDQLARLGSDEFALLIDTRRDANRAEWIAERIVEALAEPYWIDGESLLLGCSLGIAHARAQSGADPLMWHAHIAMRQAKGSQGCTFHVFNERINRNARSLADLESELRRALRRDELELHYQPRLNLADGRIVGLEALVRWRHAERGLLPPSEFVPLAEQSGLIVPLGYWVISRALRDMQALCERGLEPLHMAVNLSFRQFQDSQLLATLSRLILEHGVDARWLEFELTETAVMRRNEVVRQTMDALGRLGVRFSLDDFGTGFSSFVHLNSLPITLLKVDRSFVAEMEMREENRKLVHAMINLAHNLNLEVVAEGVESEEQLTLLRGFGCDQVQGFLVSRPLPIGELMAYLLQAPGRQLEGEGHHHHHH | soluble |
| MGSDKIHHHHHHMPATAYSAIHGRDIRTLKQCPPVVDAMTYGFMVLLPCDVVVDKGTFSWDWQIPEPVTQNHPRAPLSFHTPGQLAGSPFATTGQAALKFNSFWTIEVEDGWSLFATHPVNREDLPFRLVTGLVDSDRFSDGGINFPAVWTEAGFSGVLAKGTPVAQCFAVPRAAPQLEYEVFDEERQASYARTVADVLSTPGVYRKRFRARRGRSTGE | not soluble |
| MSLDVDLAPPGPLAAGGLRVTALGGISEIGRNMTVFEHLGRLLIIDCGVMFPTHDEPGVDLILPDLRHIEDRLDDIEALVLTHAHEDHIGGIPYLLKLRPDIPVVGSKFTLALVAAKCREHRLKPVFVEVSEGHKSTHGVFECEYFAVNHSIPDALAIAVHTGAGTVLHTGDIKLDQLPLDGRPTDLPGMSRLGDAGVDLFLCDSTNAELPGVGPSESEVGPTLHRLIRGAEGRVIVACFASNVDRVQQIIDAAVALGRRVSFVGRSMVRNMGIARELGFLRVADADVIDIGAAELMPPERVVLITTGTQGEPMSALSRMSRGEHRSITLTAGDLVVLASSLIPGNEEAVYGVIDELAKIGARVVTNAQARVHVSGHAYAGELLFLYNGVRPRHVMPVHGTWRMLRANSKLAARTGVPEESILLAENGVSVDLVAGRASISGAVPVGKMFVDGLVDGDVGDITLGERLILSSGFVAVTVVVQRGTGRPVAPPHLHSRGFSEDPKALEPAVRRVEEELEALVAENITDPSRIAQGVRRTVGKWVGETYRRQPMIVPTVIEVEGHHHHHH | soluble |
| GHMTKLFSKVKESIEGIKMPSTLTINGKAPIVAYAELIAARIVNALAPNSIAIKLVDDKKAPAAKLDDATEDVFNKITSKFAAIFDNGDKEQVAKWVNLAQKELVIKNFAKLSQSLETLDSQLNLRTFILGGLKYSAADVACWGALRSNGMCGSIIKNKVDVNVSRWYTLLEMDPIFGEAHDFLSKSLLELKKSANVGKKKETHKANFE | soluble |
| MGSDKIHHHHHHDFEELNTNPFEMTDEMGIRDGVAVGGAVMAMQRAVITVGTQADDTEAINQYQVAYNLSADSWSGFFGQNNNWYSGSNNTTYYLQDNWVAATYTNSYTTLLSSWKKIKQESEKNETPEIFALAQILKISAWHKTLESFGPIPYTHAGEPALVIPFDSEQVAFNAMFADLTAAIEALTVRAEQGATIVADYDAVYAGDTRKWVKYANSLMLRLAMRISYADETTAQKYARQALNHPFGVMTSKSDEAQMSTGAGMVFRNNIDWLANQYNECRMGSSMFSYLLGYQDPRLSAYFEASPSAYAVAAFDGKNYQAVPPGNANQQNTIYTDFSKPNITSNTPTYWMRASEVYFLRAEAALRWGSEFGDAEALYEQGVATSFDENGISSSVDDYLAFGLTPIAHNMRASYYSYNAAAPTTATPAFSGGTEQKLEKIMIQKWIALYPNGHEAWTEWRRTGYPKLNQVQTNRGQGVTREGGIRRMVYPVSFYQSAEDRANYEEALKLLGGLDKDKATTQLWWDCKNKIY | not soluble |
| MYGVLVWPPEDLRRFMEELQAARGVRGFGPPHLNLRQPFDWPYEEEALRIALAGILRGHPPFRVRLGDWRFFPQGVVYLRAYGGGAFRRLYHALEPLAPPLKEIEGPSYIPHLTLALGLSPEEAKALAQSLPPPPRRSFLVREAALVRDEGEGLVEVARFPLGPSPER | soluble |
| MVRYYHIEMLACPECRNPRLILYVVREKRGAMPPQPERLKCRRWCYLFDRPASTVPLSTCVSSCVERDIEEGVLVCPACGRWYPIVEGIPVMMDDKYRDPERDREIASRLAGHVPEWVKLRAVAPVPLEPREAGEG | soluble |
